Measurements: patent US20210246195A1
Where a chain is given by its changes, count along the chain named.

B1: PA13P1H08 variant rCDR1-N (antibody, human IgG1, V domains shown)
VH: QVQLVNSGGGVVQPGRSLRLSCVASGFTFSSYGIHWVRQAPGKGLEWVAVISNDGEKSESADSVKGRFTPSRDNSKNTVYLQMNNLRVEDTAVYYCAKVLDYSRYSYYYGMDVWGQGTTVIVSS
VL: EIVLTQSPGTLSLSPGGRGTLSCRTSQTINNAHLAWYQHKPGQAPRLLIYGSSERATGVPDRFSGSGSGSDFTLTISSLEAEDFAVYYCQHYGRSPPYTFGPGTKLDIK
B2: PA13P1H08 variant rFWRs-N (antibody, human IgG1, V domains shown)
VH: QVQLVESGGGVVQPGRSLRLSCAASGFTFSTFGMHWVRQAPGKGLEWVAVISNDGEKSYYADSVKGRFTISRDNSKNTLYLQMNSLRAEDTAVYYCAKVLDYSRYSYYYGMDVWGQGTTVTVSS
VL: B1 VL
B3: PA13P1H08 variant rCDR2-N (antibody, human IgG1, V domains shown)
VH: B1 VH with S31T, Y32F, N53Y, E56S, K57N, S58K
VL: B1 VL
B4: PA15P1D05 (antibody, human IgG1, V domains shown)
VH: QVHLVESGGGVVQPGRSLGLSCVASGFTFNYYAIHWVRQAPGKGLEWVAVVSFDGNIIYYADSVKGRFNISRDNSKNTVNLQMNSLRPDDTAVYYCVRDGEYCSGGNCYWGDFDHWGQGSLVTVSP
VL: EIVLTQSPATLSLSPGERATLSCRASQSISSEYLTWFQQKPGQAPRLLIYGAFNRATGIPDRFSGSGSGTDFTLTISSLEPEDFAVYYCQQYANWWTFGQGTKVEIK
B5: PA15P1D12 (antibody, human IgG1, V domains shown)
VH: B4 VH with V23A, P88A, H115Y, S120T
VL: B4 VL with A9G
B6: PA12P3D08 (antibody, human IgG1, V domains shown)
VH: QVQLVESGGGVVQPGKSLRLSCAASAFTFRRFAMHWVRQAPGKGLEWVAVISDNGLREDYEDSVKGRFTISRDNSQNTLYLQMNGLRAEDTAVYYCAKVLDYNEYSLYFGMDVWGQGTTVTVSS
VL: EVVLTQSPATLSLSPGERATLSCRTSQAISNNFLAWYQQRPGQPPRLLIYASSRRATDTPDRFTGSGSGTDFTLTITRLEPEDFAVYFCQYYSDSPPYTFGPGTKLEIK
B7: PA12P1C07 (antibody, human IgG1, V domains shown)
VH: B6 VH with V5E, A23V, R30K, Q76K, N77D, G85S, A88P, V93I, N103S, T121L
VL: EIVLTQSPAILSLSPGDRATLSCRTSQTVNSNFLAWYQQKPGQAPRLLIYGASRRAIDIPDRFTGSGSGTEFTLTIARLEPEDFAVYSCQHYSDSPPYTFGQGTKLEIK

Tests used:
[1] = target: Ara h 2 (purified natural peanut allergen) (Arachis hypogaea) (UniProt Q6PSU2); experiment: BLI, antibody on anti-human IgG Fc sensors, Ara h 2 as analyte, top 6 nM
[2] = target: Ara h 2 (purified natural peanut allergen) (Arachis hypogaea) (UniProt Q6PSU2); experiment: not named there (biolayer interferometry in Example 1)
[3] = target: Ara h 2 (purified natural peanut allergen) (Arachis hypogaea) (UniProt Q6PSU2); experiment: biolayer interferometry

Ara h 2 (purified natural peanut allergen) (Arachis hypogaea), sequence (Q6PSU2 22-172): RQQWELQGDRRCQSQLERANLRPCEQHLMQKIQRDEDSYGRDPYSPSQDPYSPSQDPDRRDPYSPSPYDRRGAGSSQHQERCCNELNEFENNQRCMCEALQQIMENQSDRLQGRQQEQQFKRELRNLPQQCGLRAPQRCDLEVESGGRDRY

| Binder | Kd [1] | Kd [2] | Kd [3] |
| --- | --- | --- | --- |
| B1 | 16 pM | – | – |
| B2 | 39 pM | – | – |
| B3 | 8 pM | < 1000 pM | – |
| B4 | 540 pM | – | < 1000 pM |
| B5 | 650 pM | – | < 1000 pM |
| B6 | 14 pM | – | – |
| B7 | 17 pM | – | – |
